Measured values published in US20250084453.

Columns and labels:
[1] = molecular target: BRD2, endogenous in HEK293T cells (UniProt P25440)
[2] = molecular target: BRD3, endogenous in HEK293T cells (UniProt Q15059)
[3] = molecular target: GLUL (glutamine synthetase), endogenous in HEK293T cells (UniProt P15104)
[4] = molecular target: VCL (vinculin), endogenous in HEK293T cells (UniProt P18206)
[5] = molecular target: BRD4, endogenous in HEK293T cells (UniProt O60885)
[6] = molecular target: translation termination factor GSPT1, endogenous in HEK293T cells (UniProt P15170)
translation termination factor GSPT1, endogenous in HEK293T cells, sequence (P15170 whole entry): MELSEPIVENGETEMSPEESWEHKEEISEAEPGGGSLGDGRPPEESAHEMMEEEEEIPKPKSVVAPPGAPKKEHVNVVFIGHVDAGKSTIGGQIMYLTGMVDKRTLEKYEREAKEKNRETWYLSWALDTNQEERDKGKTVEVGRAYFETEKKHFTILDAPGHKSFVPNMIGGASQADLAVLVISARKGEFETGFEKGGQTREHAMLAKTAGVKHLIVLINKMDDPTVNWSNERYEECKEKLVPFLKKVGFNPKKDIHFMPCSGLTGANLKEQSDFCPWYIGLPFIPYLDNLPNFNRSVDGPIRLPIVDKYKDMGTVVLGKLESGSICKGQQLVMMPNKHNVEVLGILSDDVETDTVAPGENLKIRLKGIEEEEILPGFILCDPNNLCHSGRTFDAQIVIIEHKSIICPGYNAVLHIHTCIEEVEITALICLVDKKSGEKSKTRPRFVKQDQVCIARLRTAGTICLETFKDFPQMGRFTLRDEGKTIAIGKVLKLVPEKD

V5-tagged IKZF1 protein = V5-tagged IKZF1 protein (UniProt Q13422)
V5-tagged IKZF1 protein, sequence (Q13422 whole entry, looked up): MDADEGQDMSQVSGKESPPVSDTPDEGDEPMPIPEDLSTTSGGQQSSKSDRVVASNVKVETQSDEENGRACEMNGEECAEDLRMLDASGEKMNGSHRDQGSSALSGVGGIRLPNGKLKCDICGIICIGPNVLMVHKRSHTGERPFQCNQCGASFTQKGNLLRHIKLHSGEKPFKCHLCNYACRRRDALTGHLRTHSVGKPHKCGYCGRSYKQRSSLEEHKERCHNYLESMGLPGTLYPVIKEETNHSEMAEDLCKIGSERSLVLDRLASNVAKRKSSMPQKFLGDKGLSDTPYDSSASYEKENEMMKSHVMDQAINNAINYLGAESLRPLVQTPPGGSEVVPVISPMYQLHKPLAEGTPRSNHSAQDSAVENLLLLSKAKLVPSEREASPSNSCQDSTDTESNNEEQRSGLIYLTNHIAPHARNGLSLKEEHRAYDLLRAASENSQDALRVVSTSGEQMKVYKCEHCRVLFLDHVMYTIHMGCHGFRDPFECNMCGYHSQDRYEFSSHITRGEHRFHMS

[7] = molecular target: translation termination factor GSPT2, endogenous in HEK293T cells (UniProt Q8IYD1)
translation termination factor GSPT2, endogenous in HEK293T cells, sequence (Q8IYD1 whole entry): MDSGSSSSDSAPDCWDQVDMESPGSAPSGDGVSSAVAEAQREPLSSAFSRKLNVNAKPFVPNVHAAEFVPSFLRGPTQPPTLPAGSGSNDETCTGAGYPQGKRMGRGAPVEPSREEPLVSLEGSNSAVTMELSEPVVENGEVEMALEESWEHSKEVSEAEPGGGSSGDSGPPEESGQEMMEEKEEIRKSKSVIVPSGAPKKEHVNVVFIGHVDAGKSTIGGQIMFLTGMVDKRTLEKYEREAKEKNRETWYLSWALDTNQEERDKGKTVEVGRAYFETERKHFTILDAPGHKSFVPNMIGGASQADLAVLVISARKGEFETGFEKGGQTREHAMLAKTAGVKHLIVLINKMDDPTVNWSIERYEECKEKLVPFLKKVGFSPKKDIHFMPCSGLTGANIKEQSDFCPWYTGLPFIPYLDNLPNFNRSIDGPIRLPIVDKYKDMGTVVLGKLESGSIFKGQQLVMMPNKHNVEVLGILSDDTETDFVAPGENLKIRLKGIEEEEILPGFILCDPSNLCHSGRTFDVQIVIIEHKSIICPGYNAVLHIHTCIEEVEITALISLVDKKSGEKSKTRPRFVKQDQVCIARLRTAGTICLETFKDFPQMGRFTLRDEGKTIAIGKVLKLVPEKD

[8] = molecular target: T1, RBM39 (RNA-Binding Motif Protein 39)/CAPERα, endogenous in HEK293T cells (UniProt Q14498)
T1 sequence: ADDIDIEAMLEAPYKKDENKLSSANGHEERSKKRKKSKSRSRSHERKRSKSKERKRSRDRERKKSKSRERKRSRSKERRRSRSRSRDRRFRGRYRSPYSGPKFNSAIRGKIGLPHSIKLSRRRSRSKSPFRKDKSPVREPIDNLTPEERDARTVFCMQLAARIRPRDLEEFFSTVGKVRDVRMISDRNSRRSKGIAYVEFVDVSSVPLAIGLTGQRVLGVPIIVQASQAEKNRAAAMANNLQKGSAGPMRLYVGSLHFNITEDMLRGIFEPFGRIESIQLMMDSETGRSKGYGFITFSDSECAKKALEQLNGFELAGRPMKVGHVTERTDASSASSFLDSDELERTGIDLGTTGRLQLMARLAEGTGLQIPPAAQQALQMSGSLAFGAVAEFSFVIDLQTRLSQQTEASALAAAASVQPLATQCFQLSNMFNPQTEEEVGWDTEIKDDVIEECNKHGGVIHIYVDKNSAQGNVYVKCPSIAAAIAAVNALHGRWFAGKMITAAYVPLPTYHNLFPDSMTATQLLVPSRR

[9] = molecular target: HIF1A, endogenous in HEK293T or A375 cells (UniProt Q16665)

VCL (vinculin), endogenous in HEK293T cells, sequence (P18206 other isoform, or with tags, fused parts or gaps): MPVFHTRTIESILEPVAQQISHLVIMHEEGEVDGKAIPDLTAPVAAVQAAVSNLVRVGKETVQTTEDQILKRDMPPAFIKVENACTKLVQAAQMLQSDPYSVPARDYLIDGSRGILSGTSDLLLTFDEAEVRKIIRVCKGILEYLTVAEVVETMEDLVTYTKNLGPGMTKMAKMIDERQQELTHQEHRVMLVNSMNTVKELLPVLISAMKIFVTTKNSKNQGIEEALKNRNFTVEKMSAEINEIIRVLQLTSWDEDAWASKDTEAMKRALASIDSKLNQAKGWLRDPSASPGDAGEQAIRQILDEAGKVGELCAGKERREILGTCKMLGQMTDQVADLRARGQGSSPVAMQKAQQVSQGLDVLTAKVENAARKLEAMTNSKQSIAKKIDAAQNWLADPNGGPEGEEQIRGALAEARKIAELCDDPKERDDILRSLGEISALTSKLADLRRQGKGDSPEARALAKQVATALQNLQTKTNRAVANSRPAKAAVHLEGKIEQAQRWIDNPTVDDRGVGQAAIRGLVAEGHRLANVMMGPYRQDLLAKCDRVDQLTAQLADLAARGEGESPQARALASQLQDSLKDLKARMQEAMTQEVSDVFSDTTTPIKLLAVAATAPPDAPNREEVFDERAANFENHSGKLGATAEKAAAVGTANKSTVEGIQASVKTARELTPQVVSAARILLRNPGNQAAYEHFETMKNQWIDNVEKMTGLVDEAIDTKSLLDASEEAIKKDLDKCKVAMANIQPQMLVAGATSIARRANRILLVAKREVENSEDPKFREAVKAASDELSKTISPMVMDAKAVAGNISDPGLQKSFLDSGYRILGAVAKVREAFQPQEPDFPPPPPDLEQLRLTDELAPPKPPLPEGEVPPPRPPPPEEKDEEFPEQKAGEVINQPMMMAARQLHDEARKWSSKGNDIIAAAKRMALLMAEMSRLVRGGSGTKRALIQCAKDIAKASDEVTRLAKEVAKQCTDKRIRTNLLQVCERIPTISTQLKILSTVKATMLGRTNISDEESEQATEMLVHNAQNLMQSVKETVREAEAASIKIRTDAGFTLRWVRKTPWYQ
BRD3, endogenous in HEK293T cells, sequence (Q15059 2-726): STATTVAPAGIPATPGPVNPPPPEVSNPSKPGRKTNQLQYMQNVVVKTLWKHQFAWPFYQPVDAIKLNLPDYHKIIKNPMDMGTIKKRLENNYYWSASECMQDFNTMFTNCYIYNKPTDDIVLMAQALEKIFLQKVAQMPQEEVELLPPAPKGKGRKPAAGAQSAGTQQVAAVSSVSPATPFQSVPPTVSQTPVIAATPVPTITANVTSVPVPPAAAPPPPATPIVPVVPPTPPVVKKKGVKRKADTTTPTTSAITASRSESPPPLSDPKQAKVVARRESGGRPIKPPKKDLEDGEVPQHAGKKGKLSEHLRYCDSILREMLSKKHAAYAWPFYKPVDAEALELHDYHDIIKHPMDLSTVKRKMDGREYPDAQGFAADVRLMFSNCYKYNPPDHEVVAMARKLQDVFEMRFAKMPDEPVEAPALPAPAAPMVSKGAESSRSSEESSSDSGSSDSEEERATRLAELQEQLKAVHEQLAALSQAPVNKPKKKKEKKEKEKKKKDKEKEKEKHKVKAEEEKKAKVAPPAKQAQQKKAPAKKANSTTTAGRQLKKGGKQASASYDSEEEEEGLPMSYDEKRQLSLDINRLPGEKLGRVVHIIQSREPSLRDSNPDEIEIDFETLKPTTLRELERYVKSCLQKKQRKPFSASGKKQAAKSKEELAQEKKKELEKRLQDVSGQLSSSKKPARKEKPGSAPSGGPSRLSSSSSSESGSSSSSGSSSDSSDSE
BRD2, endogenous in HEK293T cells, sequence (P25440 whole entry, looked up): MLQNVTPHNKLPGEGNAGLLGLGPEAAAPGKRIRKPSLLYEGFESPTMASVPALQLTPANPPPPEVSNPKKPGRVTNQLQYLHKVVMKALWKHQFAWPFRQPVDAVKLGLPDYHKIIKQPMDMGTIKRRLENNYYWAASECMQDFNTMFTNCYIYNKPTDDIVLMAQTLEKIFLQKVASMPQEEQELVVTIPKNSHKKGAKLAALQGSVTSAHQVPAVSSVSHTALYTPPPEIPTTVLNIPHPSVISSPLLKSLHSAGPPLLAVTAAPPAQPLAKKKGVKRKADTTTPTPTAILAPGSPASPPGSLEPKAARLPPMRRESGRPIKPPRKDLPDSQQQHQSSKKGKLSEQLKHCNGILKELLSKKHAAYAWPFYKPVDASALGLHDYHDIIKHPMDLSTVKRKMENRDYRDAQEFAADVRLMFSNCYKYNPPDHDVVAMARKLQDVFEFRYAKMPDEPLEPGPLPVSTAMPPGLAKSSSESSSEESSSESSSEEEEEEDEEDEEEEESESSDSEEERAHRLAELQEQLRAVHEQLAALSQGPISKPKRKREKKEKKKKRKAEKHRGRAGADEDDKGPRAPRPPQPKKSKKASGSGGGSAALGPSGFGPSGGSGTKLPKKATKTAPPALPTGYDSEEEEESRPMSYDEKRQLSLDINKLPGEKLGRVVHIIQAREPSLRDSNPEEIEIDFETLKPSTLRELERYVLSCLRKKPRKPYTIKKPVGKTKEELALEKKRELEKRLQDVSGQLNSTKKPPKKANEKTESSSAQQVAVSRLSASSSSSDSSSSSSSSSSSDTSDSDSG
GLUL (glutamine synthetase), endogenous in HEK293T cells, sequence (P15104 2-373): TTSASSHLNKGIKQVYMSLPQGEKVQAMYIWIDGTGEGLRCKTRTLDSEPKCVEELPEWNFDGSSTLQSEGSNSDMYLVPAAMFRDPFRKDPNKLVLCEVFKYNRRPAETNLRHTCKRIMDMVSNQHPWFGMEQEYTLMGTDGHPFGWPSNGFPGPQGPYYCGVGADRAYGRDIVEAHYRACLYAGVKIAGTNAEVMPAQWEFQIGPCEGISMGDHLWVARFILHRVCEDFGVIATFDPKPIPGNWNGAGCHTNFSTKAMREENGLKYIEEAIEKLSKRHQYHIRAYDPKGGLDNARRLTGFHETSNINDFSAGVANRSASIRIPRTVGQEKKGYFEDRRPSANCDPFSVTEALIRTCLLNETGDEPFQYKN

Substance: CRBN E3 ligase fused at its carboxy terminus to E. coli wild-type BirA biotin ligase (CRBN-BirA)
- differential enrichment in streptavidin pulldown (MS, triplicates, A3-HA-Ub), PROTAC dBET6 (1 µM) against DMSO [1]: CRBN-BirA; ubiquitinated substrates BRD2, BRD3, BRD4 observed in the upper right portion of the top left volcano plot
- differential enrichment in streptavidin pulldown (MS, triplicates, A3-HA-Ub), PROTAC dBET6 (1 µM) against DMSO [2]: CRBN-BirA; ubiquitinated substrates BRD2, BRD3, BRD4 observed in the upper right portion of the top left volcano plot
- proteins differentially biotinylated, VHL-BirA against CRBN-BirA (MS, triplicates, A3-tagged ubiquitin, HEK293T) [3]: Other identified proteins included GLUL, which is a reported a CRBN substrate
- biotinylation in streptavidin pulldown (MS, A3-HA-Ub, CC-885 1 µM), WT CRBN-BirA against loss-of-function mutants [4]: substrates GSPT1, GSPT2, VCL and CSNK1A1 were identified
- differential enrichment in streptavidin pulldown (MS, triplicates, A3-HA-Ub), PROTAC dBET6 (1 µM) against DMSO [5]: CRBN-BirA; ubiquitinated substrates BRD2, BRD3, BRD4 observed in the upper right portion of the top left volcano plot
- # of PSMs in streptavidin pulldown (MS), A3-Ub, CC-885 [6]: 30 PSMs
- # of PSMs in streptavidin pulldown (MS), A3-Ub, DMSO [6]: 0 PSMs
- # of PSMs in streptavidin pulldown (MS), Avi-Ub, CC-885 [6]: 25 PSMs
- # of PSMs in streptavidin pulldown (MS), Avi-Ub, DMSO [6]: 0 PSMs
- biotinylated, ubiquitinated endogenous GSPT1 in streptavidin pulldown (Western blot, Avi-HA-Ub), with CC-885 (1 µM) [6]: mono- and poly-ubiquitinated GSPT1 captured by the streptavidin beads were only observed in conditions where CC-885 was present
- biotinylation in streptavidin pulldown (MS, A3-HA-Ub, CC-885 1 µM), WT CRBN-BirA against loss-of-function mutants [6]: substrates GSPT1, GSPT2, VCL and CSNK1A1 were identified
- differential enrichment in streptavidin pulldown (MS, triplicates, A3-Ub), CC-885 against DMSO [6]: GSPT1 and GSPT2 are observed to be the most upregulated proteins, both by amount and by statistical significance
- sensitivity in detecting CC-885-induced ubiquitination of GSPT1 by CRBN (Western blot quantification), A3-tag [6]: when comparing A3-tag to Avi-tag (36.39 to 15.46, respectively)
- sensitivity in detecting CC-885-induced ubiquitination of GSPT1 by CRBN (Western blot quantification), Avi-tag [6]: when comparing A3-tag to Avi-tag (36.39 to 15.46, respectively)
- ubiquitinated GSPT1 captured by streptavidin beads (Western blot quantification, Avi-HA-Ub), CC-885 against DMSO [6]: 6-12 fold more ubiquitinated GSPT1 was captured by the streptavidin beads
- biotinylated, ubiquitinated V5-IKZF1 in streptavidin bead eluates (Western blot), Avi-Ub or A3-Ub, with pomalidomide (1 µM) (V5-tagged IKZF1 protein): both substrate peptide-tagged ubiquitin variants showed pomalidomide-induced ubiquitination of IKZF1 by E3 ligase CRBN
- biotinylated, ubiquitinated V5-IKZF1 in streptavidin pulldown (Western blot, Avi-HA-Ub), with pomalidomide (1 µM) (V5-tagged IKZF1 protein): in conditions where pomalidomide was present, an increased amount of mono- and poly-ubiquitinated V5-IKZF1 was captured by the streptavidin beads
- sensitivity in detecting pomalidomide-induced ubiquitination of V5-IKZF1 (Western blot quantification), A3-tagged ubiquitin (V5-tagged IKZF1 protein): 17.76 to 5.58 when comparing A3 to Avi
- sensitivity in detecting pomalidomide-induced ubiquitination of V5-IKZF1 (Western blot quantification), Avi-tagged ubiquitin (V5-tagged IKZF1 protein): 17.76 to 5.58 when comparing A3 to Avi
- ubiquitinated V5-IKZF1 captured by streptavidin beads (Western blot quantification, Avi-HA-Ub), pomalidomide against DMSO (V5-tagged IKZF1 protein): approximately 3.9-fold more ubiquitinated V5-IKZF1 substrate was captured by the streptavidin beads
- # of PSMs in streptavidin pulldown (MS), A3-Ub, CC-885 [7]: 20 PSMs
- # of PSMs in streptavidin pulldown (MS), A3-Ub, DMSO [7]: 0 PSMs
- # of PSMs in streptavidin pulldown (MS), Avi-Ub, CC-885 [7]: 13 PSMs
- # of PSMs in streptavidin pulldown (MS), Avi-Ub, DMSO [7]: 0 PSMs
- biotinylation in streptavidin pulldown (MS, A3-HA-Ub, CC-885 1 µM), WT CRBN-BirA against loss-of-function mutants [7]: substrates GSPT1, GSPT2, VCL and CSNK1A1 were identified
- differential enrichment in streptavidin pulldown (MS, triplicates, A3-Ub), CC-885 against DMSO [7]: GSPT1 and GSPT2 are observed to be the most upregulated proteins, both by amount and by statistical significance

Substance: CRBN-BirA mutant D249Y
- biotinylation in streptavidin pulldown (MS, A3-HA-Ub, CC-885 1 µM), D249Y mutant against WT CRBN-BirA [4]: a decrease in biotinylation by the loss-of-function CRBN-BirA mutants
- biotinylation in streptavidin pulldown (MS, A3-HA-Ub, CC-885 1 µM), D249Y mutant against WT CRBN-BirA [6]: a decrease in biotinylation by the loss-of-function CRBN-BirA mutants
- biotinylation in streptavidin pulldown (MS, A3-HA-Ub, CC-885 1 µM), D249Y mutant against WT CRBN-BirA [7]: a decrease in biotinylation by the loss-of-function CRBN-BirA mutants

Substance: CRBN-BirA mutant W386A
- biotinylation in streptavidin pulldown (MS, A3-HA-Ub, CC-885 1 µM), W386A mutant against WT CRBN-BirA [4]: a decrease in biotinylation by the loss-of-function CRBN-BirA mutants
- biotinylation in streptavidin pulldown (MS, A3-HA-Ub, CC-885 1 µM), W386A mutant against WT CRBN-BirA [6]: a decrease in biotinylation by the loss-of-function CRBN-BirA mutants
- biotinylation in streptavidin pulldown (MS, A3-HA-Ub, CC-885 1 µM), W386A mutant against WT CRBN-BirA [7]: a decrease in biotinylation by the loss-of-function CRBN-BirA mutants

Substance: DCAF15 fused to BirA biotin ligase (DCAF15-BirA)
- differential enrichment in streptavidin pulldown (MS, triplicates, A3-HA-Ub), E7820 (10 µM) against DMSO [8]: the induced ubiquitinated substrate RBM39/CAPERα was produced as a result of the use of the E7820 molecular glue in conjunction with DCAF15-BirA and associated CRL4 E3 ligase

Substance: VHL E3 ligase fused to E. coli wild-type BirA biotin ligase (VHL-BirA)
- differential enrichment in streptavidin pulldown (MS, triplicates, A3-HA-Ub), PROTAC ARV-771 (1 µM) against DMSO [1]: VHL-BirA; ubiquitinated substrates BRD2, BRD3, BRD4 observed in the upper right portion of the top right volcano plot
- differential enrichment in streptavidin pulldown (MS, triplicates, A3-HA-Ub), PROTAC ARV-771 (1 µM) against DMSO [2]: VHL-BirA; ubiquitinated substrates BRD2, BRD3, BRD4 observed in the upper right portion of the top right volcano plot
- proteins differentially biotinylated by VHL-BirA against CRBN-BirA (MS, triplicates, A3-tagged ubiquitin, HEK293T) [9]: One of the best known VHL substrates, HIF1A was among the hits of differentially biotinylated proteins by VHL-BirA
- differential enrichment in streptavidin pulldown (MS, triplicates, A3-HA-Ub), PROTAC ARV-771 (1 µM) against DMSO [5]: VHL-BirA; ubiquitinated substrates BRD2, BRD3, BRD4 observed in the upper right portion of the top right volcano plot
